Experimental data reported in the supplement of paper PMC10065799, “High-throughput profiling of sequence recognition by tyrosine kinases and SH2 domains using bacterial peptide display” (eLife, 2023).

What was measured:
SHP2-C SH2 = test: SH2 binding enrichment of the phosphorylated peptide, bacterial display (enrichment ratio); higher = better substrate or ligand; peptides without Tyr show the background
c-Src SH2 = test: as above
Grb2 SH2 = Grb2 SH2 (UniProt P62993); test: as above
Fer (mouse) = test: phosphorylation enrichment, bacterial display (enrichment ratio); higher = better substrate or ligand; peptides without Tyr show the background
FGFR3 = FGFR3 (UniProt P22607); test: as above
c-Abl (mouse) = test: as above
Fyn = Fyn (UniProt P06241); test: as above
Hck = Hck (UniProt P08631); test: as above
c-Src = test: as above
EPHB2 = EPHB2 (UniProt P29323); test: as above
EPHB1 = EPHB1 (UniProt P54762); test: as above
Jak2 = Jak2 (UniProt O60674); test: as above
FGFR1 = FGFR1 (UniProt P11362); test: as above
MERTK = MERTK (UniProt Q12866); test: as above
Fes = Fes (UniProt P07332); test: as above
AncSZ = test: as above
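Wherever SH2 binding enrichment of the phosphorylated peptide, bacterial display is given: peptide library displayed on the E. coli surface as eCPX fusions, selected cells deep-sequenced, score is each peptide's frequency after selection divided by its frequency in the input.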
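Wherever phosphorylation enrichment, bacterial display is given: 11-residue human phosphosite peptides and single-mutation variants displayed on the E. coli surface, counted by deep sequencing, each peptide's frequency after selection divided by its frequency in the unselected input library; frequency after pTyr selection over input frequency; kinase dosed for 20-30% of maximal phosphorylation in three min.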

Fyn, sequence (P06241 whole entry, looked up): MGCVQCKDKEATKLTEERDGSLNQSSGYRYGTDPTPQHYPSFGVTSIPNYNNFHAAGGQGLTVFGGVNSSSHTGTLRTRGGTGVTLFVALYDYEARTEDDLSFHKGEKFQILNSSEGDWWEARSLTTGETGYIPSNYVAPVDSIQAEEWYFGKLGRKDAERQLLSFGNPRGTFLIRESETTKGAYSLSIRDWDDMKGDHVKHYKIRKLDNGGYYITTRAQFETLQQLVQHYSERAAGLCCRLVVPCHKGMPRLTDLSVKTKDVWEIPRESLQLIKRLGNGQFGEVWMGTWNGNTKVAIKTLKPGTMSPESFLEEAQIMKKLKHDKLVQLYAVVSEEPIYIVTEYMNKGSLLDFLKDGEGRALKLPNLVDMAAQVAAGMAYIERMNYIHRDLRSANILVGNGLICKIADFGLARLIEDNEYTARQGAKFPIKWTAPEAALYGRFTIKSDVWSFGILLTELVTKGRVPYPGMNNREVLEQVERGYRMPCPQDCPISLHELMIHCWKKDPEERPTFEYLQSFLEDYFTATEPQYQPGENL
Jak2, sequence (O60674 whole entry, looked up): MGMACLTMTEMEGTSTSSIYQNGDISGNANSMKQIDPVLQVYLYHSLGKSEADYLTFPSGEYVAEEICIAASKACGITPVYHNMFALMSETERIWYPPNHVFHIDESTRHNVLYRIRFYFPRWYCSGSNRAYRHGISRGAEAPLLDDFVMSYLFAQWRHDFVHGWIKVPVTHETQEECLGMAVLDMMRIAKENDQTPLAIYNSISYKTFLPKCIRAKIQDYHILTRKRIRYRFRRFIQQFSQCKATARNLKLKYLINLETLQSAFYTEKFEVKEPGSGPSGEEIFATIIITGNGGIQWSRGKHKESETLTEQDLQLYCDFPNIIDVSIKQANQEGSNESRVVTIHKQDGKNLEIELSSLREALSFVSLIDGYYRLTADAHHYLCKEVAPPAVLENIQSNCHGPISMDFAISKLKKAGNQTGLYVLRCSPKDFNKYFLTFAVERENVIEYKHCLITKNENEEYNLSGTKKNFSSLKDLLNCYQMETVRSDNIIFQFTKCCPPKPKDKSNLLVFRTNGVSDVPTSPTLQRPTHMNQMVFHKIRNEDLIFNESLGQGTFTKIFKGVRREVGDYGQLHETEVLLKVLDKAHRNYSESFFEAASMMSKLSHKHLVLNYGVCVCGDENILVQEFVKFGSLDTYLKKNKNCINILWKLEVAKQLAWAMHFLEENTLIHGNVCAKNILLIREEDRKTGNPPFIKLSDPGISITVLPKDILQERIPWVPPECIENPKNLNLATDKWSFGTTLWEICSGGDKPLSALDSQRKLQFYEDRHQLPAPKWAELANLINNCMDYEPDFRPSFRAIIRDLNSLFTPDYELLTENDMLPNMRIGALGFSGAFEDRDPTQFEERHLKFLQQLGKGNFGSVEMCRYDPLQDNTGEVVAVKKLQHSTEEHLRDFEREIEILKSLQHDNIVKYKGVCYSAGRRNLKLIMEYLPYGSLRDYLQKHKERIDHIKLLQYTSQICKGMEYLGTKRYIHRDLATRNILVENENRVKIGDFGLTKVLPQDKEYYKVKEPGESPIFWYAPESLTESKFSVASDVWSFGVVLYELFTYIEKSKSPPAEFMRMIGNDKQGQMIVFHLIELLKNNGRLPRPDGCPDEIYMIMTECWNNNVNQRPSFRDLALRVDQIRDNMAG
FGFR3, sequence (P22607 whole entry, looked up): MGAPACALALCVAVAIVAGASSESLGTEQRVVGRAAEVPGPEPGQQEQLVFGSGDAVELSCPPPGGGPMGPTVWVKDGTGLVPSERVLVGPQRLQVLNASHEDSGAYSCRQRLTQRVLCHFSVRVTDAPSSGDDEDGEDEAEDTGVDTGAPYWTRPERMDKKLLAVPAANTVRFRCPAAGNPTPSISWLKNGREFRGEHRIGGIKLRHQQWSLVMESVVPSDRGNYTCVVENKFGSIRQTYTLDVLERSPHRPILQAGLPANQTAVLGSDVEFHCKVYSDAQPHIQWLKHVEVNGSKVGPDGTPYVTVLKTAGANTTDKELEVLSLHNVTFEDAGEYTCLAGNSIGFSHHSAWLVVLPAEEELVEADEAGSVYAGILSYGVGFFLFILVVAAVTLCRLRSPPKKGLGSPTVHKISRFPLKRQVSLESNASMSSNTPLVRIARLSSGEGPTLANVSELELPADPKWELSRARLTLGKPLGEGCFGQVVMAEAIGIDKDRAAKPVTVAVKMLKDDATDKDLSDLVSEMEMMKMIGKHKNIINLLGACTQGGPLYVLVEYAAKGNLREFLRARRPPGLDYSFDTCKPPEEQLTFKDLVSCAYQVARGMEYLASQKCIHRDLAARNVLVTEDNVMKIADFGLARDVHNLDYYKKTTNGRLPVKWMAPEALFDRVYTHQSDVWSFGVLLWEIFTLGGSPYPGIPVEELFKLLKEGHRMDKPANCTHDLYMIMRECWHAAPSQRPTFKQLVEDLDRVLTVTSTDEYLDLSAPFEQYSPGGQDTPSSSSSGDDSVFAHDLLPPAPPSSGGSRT
Hck, sequence (P08631 whole entry, looked up): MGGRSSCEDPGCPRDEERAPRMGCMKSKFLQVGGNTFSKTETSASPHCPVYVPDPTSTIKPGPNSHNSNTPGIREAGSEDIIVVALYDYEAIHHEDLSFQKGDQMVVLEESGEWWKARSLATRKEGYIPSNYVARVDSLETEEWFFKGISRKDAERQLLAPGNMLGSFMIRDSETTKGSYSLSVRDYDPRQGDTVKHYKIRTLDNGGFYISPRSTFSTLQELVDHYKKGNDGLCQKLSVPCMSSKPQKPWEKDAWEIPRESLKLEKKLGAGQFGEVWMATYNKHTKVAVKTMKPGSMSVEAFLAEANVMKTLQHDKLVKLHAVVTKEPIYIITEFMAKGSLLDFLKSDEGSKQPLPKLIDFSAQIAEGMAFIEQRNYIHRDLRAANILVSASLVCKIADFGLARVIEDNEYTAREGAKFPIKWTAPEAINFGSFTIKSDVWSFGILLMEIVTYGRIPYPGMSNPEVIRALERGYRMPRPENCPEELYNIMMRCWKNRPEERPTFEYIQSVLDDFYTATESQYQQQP
EPHB1, sequence (P54762 whole entry, looked up): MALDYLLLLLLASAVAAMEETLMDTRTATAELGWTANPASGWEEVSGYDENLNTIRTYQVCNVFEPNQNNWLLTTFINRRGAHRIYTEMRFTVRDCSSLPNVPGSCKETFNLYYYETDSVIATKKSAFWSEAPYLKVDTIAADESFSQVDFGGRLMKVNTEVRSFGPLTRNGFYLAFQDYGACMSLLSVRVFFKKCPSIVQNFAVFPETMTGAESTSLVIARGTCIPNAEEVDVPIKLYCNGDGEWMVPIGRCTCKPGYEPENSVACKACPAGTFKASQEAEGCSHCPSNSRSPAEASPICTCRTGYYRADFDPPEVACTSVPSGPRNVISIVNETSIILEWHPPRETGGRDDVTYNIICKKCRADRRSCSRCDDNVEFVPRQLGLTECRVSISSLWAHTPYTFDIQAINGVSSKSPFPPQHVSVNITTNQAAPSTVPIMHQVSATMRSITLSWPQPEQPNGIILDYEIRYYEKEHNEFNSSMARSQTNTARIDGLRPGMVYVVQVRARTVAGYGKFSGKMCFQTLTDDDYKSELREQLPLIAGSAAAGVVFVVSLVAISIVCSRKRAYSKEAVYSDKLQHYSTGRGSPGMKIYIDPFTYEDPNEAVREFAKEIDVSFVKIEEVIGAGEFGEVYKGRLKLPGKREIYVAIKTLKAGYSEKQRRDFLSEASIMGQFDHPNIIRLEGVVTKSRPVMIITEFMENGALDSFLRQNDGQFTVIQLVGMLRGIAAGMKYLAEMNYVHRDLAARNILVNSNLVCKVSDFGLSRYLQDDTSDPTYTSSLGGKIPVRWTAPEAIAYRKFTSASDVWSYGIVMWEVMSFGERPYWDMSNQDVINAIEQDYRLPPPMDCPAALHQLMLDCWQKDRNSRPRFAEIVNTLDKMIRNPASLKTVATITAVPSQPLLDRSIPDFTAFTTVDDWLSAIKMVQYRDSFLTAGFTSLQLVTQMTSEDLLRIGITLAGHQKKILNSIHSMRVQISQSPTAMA
EPHB2, sequence (P29323 whole entry, looked up): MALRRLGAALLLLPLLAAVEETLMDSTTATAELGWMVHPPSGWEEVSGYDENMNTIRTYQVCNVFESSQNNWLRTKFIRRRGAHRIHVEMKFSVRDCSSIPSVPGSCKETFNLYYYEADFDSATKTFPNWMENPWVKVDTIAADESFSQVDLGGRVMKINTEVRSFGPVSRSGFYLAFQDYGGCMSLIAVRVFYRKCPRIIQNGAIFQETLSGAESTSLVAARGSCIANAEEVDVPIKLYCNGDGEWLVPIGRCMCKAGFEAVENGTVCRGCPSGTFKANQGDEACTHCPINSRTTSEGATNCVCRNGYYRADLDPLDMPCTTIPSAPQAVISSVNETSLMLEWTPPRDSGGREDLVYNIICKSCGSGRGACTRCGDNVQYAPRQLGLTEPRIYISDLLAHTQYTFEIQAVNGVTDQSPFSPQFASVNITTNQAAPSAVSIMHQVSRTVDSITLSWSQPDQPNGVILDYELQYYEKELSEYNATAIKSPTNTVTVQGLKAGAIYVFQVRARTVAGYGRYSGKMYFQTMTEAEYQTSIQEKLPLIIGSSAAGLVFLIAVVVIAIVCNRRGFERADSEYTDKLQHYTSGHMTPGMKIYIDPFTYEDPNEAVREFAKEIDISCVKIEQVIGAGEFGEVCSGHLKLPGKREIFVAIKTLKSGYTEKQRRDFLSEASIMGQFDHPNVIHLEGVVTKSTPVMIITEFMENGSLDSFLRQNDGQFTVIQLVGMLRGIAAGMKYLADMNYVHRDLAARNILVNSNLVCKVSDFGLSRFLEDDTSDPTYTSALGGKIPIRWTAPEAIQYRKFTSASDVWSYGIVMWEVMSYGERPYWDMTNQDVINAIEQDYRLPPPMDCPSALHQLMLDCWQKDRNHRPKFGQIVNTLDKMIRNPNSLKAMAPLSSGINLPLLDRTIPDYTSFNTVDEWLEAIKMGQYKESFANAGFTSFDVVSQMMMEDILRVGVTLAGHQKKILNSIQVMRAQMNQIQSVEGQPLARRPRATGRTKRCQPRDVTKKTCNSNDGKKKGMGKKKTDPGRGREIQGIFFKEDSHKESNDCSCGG

| Sequence | SH2 binding enrichment (SHP2-C SH2) | SH2 binding enrichment (c-Src SH2) | SH2 binding enrichment (Grb2 SH2) | phosphorylation enrichment (Fer (mouse)) | phosphorylation enrichment (FGFR3) | phosphorylation enrichment (c-Abl (mouse)) | phosphorylation enrichment (Fyn) | phosphorylation enrichment (Hck) | phosphorylation enrichment (c-Src) | phosphorylation enrichment (EPHB2) | phosphorylation enrichment (EPHB1) | phosphorylation enrichment (Jak2) | phosphorylation enrichment (FGFR1) | phosphorylation enrichment (MERTK) | phosphorylation enrichment (Fes) | phosphorylation enrichment (AncSZ) |
| --- | --- | --- | --- | --- | --- | --- | --- | --- | --- | --- | --- | --- | --- | --- | --- | --- |
| GEPLSHTRFSL [TFRC_Y20_Y20H] | 0.641 | 0.487 | 0.866 | 0.448 | 0.435 | 0.637 | 0.398 | 0.478 | 0.456 | 0.36 | 0.449 | 0.742 | 0.424 | 0.424 | 0.828 | 0.599 |
| GEVLVYAEDPA [FLNA_Y319_V320A] | 1 | 0.549 | 0.874 | 0.385 | 0.704 | 0.496 | 0.593 | 0.543 | 0.553 | 0.53 | 0.607 | 0.814 | 0.496 | 0.408 | 1.05 | 1.21 |
| GGFNNYGFGND [HNRNPH3_Y159_YF] | 0.697 | 0.467 | 0.875 | 0.463 | 0.611 | 0.548 | 0.465 | 0.437 | 0.431 | 0.902 | 0.733 | 0.627 | 0.514 | 0.397 | 0.841 | 0.654 |
| GGFNNYGFGSD [HNRNPH3_Y159_N163S_YF] | 0.744 | 0.47 | 0.753 | 0.39 | 0.533 | 0.575 | 0.458 | 0.454 | 0.426 | 0.812 | 0.7 | 0.68 | 0.48 | 0.474 | 0.762 | 0.656 |
| GGGGGYNRSSG [FUS_Y232] | 0.503 | 0.34 | 0.682 | 0.328 | 0.386 | 0.574 | 0.371 | 0.419 | 0.358 | 0.271 | 0.57 | 0.503 | 0.304 | 0.435 | 0.503 | 0.478 |
| GGGMFYPLDLF | 0.749 | 0.532 | 1.07 | 0.405 | 0.693 | 0.627 | 0.453 | 0.499 | 0.388 | 0.454 | 0.503 | 0.891 | 0.405 | 0.372 | 1.1 | 0.942 |
| GGMTEYELVVV [KRAS_Y4_K5E] | 0.528 | 0.525 | 0.792 | 7.66 | 1.62 | 0.589 | 0.664 | 0.585 | 0.651 | 1.15 | 1.39 | 1 | 2.95 | 0.456 | 1.04 | 1.6 |
| GGPTFYIDTNA [ACTL6A_Y69_YF] | 0.608 | 0.577 | 0.874 | 0.529 | 0.868 | 0.775 | 0.458 | 0.53 | 0.439 | 0.626 | 0.707 | 1.13 | 0.542 | 0.41 | 1.39 | 1.24 |
| GHEEFYSTHPH [LRRK2_Y1402_R1398H] | 1.09 | 0.434 | 0.771 | 1.41 | 0.549 | 0.504 | 0.638 | 1.15 | 1.2 | 0.7 | 0.617 | 0.59 | 0.76 | 1.77 | 0.626 | 0.664 |
| GHEYIYVDRMQ [PDGFRB_Y581_P584R] | 0.859 | 0.746 | 0.878 | 0.472 | 3.24 | 0.607 | 1.94 | 1.44 | 2.62 | 0.546 | 0.796 | 0.644 | 5.2 | 0.48 | 0.695 | 0.891 |
| GHGEEYPVAGA [NOTCH3_Y2221_A2223V] | 0.621 | 0.413 | 0.762 | 0.408 | 0.48 | 0.592 | 0.438 | 0.421 | 0.398 | 0.424 | 0.451 | 0.682 | 0.481 | 0.373 | 0.755 | 0.763 |
| GHMFAYDWISI [BEST1_Y227_L224M_YF] | 1.03 | 1.15 | 1.25 | 13.8 | 2.15 | 0.922 | 0.935 | 1.78 | 1.28 | 0.933 | 1.05 | 0.842 | 3.48 | 7.14 | 2.68 | 1.47 |
| GHNDVYILEHV [GRIN2A_Y1423_S1425L] | 0.755 | 0.48 | 0.717 | 0.567 | 0.594 | 0.54 | 4.4 | 1.04 | 2.94 | 0.518 | 0.452 | 0.668 | 0.43 | 0.378 | 1.03 | 0.861 |
| GINDDHGQLKN [NBN_Y679_Y679H] | 1.05 | 0.481 | 0.817 | 0.426 | 0.591 | 0.524 | 0.537 | 0.484 | 0.382 | 0.475 | 0.448 | 0.591 | 0.471 | 0.473 | 0.763 | 0.757 |
| GISDEYHVIRH [GCDH_Y398] | 0.606 | 0.941 | 0.827 | 0.405 | 2.26 | 0.569 | 0.64 | 0.962 | 0.664 | 0.475 | 0.458 | 0.633 | 4.48 | 0.339 | 0.69 | 0.917 |
| GIVEEYQLPYY [BMPR1A_Y453] | 0.997 | 4.36 | 0.862 | 0.66 | 0.946 | 1.16 | 0.647 | 0.63 | 3.47 | 0.642 | 0.611 | 1.29 | 1.06 | 0.567 | 1.06 | 3 |
| GIVKAYFVHAR [AIPL1_Y267_R270H_YF] | 1.71 | 1.01 | 1.3 | 0.481 | 0.605 | 0.602 | 0.449 | 0.461 | 0.428 | 0.494 | 0.422 | 0.73 | 0.388 | 0.448 | 0.872 | 0.795 |
